Reference: publication PMC3169408, “Structure of triosephosphate isomerase from Cryptosporidium parvum” (Acta Crystallographica Section F: Structural Biology and …, 2011)

Molecular target: the molecule itself
Assay: crystal structure; crystals from 100 mM Bis-Tris propane pH 7.5, 200 mM sodium sulfate, 20% PEG 3350; space group P2(1); 1.55 Å; two molecules per asymmetric unit; interface analysed with PISA

B1: triosephosphate isomerase from Cryptosporidium parvum Iowa II (enzyme, UniProt Q5CSE7 1-250, looked up)
chain: MSRKYFVGGNFKCNGTKESLKTLIDSFKQVESSNSEVYVFPTSLHISLVKEFFGNDHPGVFKIGSQNISCTGNGAFTGEVSCEMLKDMDVDCSLVGHSERRQYYSETDQIVNNKVKKGLENGLKIVLCIGESLSERETGKTNDVIQKQLTEALKDVSDLSNLVIAYEPIWAIGTGVVATPGQAQEAHAFIREYVTRMYNPQVSSNLRIIYGGSVTPDNCNELIKCADIDGFLVGGASLKPTFAKIIESAQ
notes: triosephosphate isomerase, Cryptosporidium parvum Iowa II, UniProt Q5CSE7, residues 1-250 (Met1-Gln250), full length; The final model extends from Ser2 to Gln250 in both chains; also called TIM; CrpaA.01119.a.A1; source: E. coli Rosetta Oxford strain [BL21*(DE3)-R3-pRARE2], purified (IMAC, tag cleavage with 3C protease, SEC)
stoichiometry N: 2
